Test results from the supplement of paper PMC9112550, “Optimization of the antimicrobial peptide Bac7 by deep mutational scanning” (BMC Biology, 2022).

Tested on: Escherichia coli TOP10
Assay: shrunken log2 fold change of peptide-encoding DNA abundance (4.5 h post-induction vs induction); higher = less antimicrobial activity (less host growth inhibition)
Details: time post-induction: 4.5 h; library: site-saturation at positions 5, 18, 19, 20
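Also: peptides expressed intracellularly from a pBAD plasmid library in pooled LB shake-flask culture, induced with 0.3% L-arabinose, DNA abundance read by NGS, three biological replicates, DESeq2 with apeglm shrinkage.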

Sequence | shrunken log2 fold change
RRIRLRPPRLPRPRPRPELIPRP | -0.0413
RRIRLRPPRLPRPRPRPEMFPRP | -0.00904
RRIRLRPPRLPRPRPRPEMVPRP | 0.201
RRIRLRPPRLPRPRPRPEPSPRP | 0.787
RRIRLRPPRLPRPRPRPERCPRP | 0.00413
RRIRLRPPRLPRPRPRPERIPRP | 0.0484
RRIRLRPPRLPRPRPRPESQPRP | -0.000253
RRIRLRPPRLPRPRPRPEWLPRP | 0.315
RRIRLRPPRLPRPRPRPEYNPRP | -0.15
RRIRLRPPRLPRPRPRPFADPRP | 0.0979
RRIRLRPPRLPRPRPRPFAGPRP | 0.024
RRIRLRPPRLPRPRPRPFAYPRP | -0.163
RRIRLRPPRLPRPRPRPFCHPRP | 0.0449
RRIRLRPPRLPRPRPRPFCLPRP | -0.485
RRIRLRPPRLPRPRPRPFDEPRP | 0.0466
RRIRLRPPRLPRPRPRPFDNPRP | -0.0289
RRIRLRPPRLPRPRPRPFEQPRP | 0.305
RRIRLRPPRLPRPRPRPFFRPRP | -0.0862
RRIRLRPPRLPRPRPRPFIAPRP | -0.496
RRIRLRPPRLPRPRPRPFLIPRP | -0.666

Sequence | shrunken log2 fold change
RRIRLRPPRLPRPRPRPFLWPRP | -0.314
RRIRLRPPRLPRPRPRPFMCPRP | -0.0925
RRIRLRPPRLPRPRPRPFNSPRP | -0.431
RRIRLRPPRLPRPRPRPFSIPRP | -0.158
RRIRLRPPRLPRPRPRPFTRPRP | -0.0482
RRIRLRPPRLPRPRPRPFTYPRP | -0.0906
RRIRLRPPRLPRPRPRPFYAPRP | -0.279
RRIRLRPPRLPRPRPRPFYHPRP | -0.821
RRIRLRPPRLPRPRPRPGACPRP | 0.264
RRIRLRPPRLPRPRPRPGAGPRP | 0.448
RRIRLRPPRLPRPRPRPGAHPRP | 0.057
RRIRLRPPRLPRPRPRPGAPPRP | 0.672
RRIRLRPPRLPRPRPRPGCQPRP | -0.00705
RRIRLRPPRLPRPRPRPGFFPRP | 0.0646
RRIRLRPPRLPRPRPRPGFWPRP | 0.406
RRIRLRPPRLPRPRPRPGGTPRP | -0.0425
RRIRLRPPRLPRPRPRPGILPRP | -0.105
RRIRLRPPRLPRPRPRPGKKPRP | 0.0971
RRIRLRPPRLPRPRPRPGKNPRP | -0.304
RRIRLRPPRLPRPRPRPGLDPRP | -0.0233

Sequence | shrunken log2 fold change
RRIRLRPPRLPRPRPRPGLKPRP | 0.12
RRIRLRPPRLPRPRPRPGLVPRP | 0.0948
RRIRLRPPRLPRPRPRPGMHPRP | 0.299
RRIRLRPPRLPRPRPRPGMTPRP | 0.00528
RRIRLRPPRLPRPRPRPGMWPRP | 0.164
RRIRLRPPRLPRPRPRPGPFPRP | 0.137
RRIRLRPPRLPRPRPRPGPGPRP | 0.279
RRIRLRPPRLPRPRPRPGQMPRP | 0.482
RRIRLRPPRLPRPRPRPGQPPRP | 0.187
RRIRLRPPRLPRPRPRPGRLPRP | 0.0389
RRIRLRPPRLPRPRPRPGSTPRP | -0.381
RRIRLRPPRLPRPRPRPGTAPRP | 0.362
RRIRLRPPRLPRPRPRPGTRPRP | 0.309
RRIRLRPPRLPRPRPRPGWVPRP | 0.117
RRIRLRPPRLPRPRPRPGYGPRP | 0.0339
RRIRLRPPRLPRPRPRPGYNPRP | -0.774
RRIRLRPPRLPRPRPRPHAVPRP | 0.0578
RRIRLRPPRLPRPRPRPHAWPRP | 0.62
RRIRLRPPRLPRPRPRPHCVPRP | -0.068
RRIRLRPPRLPRPRPRPHDHPRP | 0.0691
